According to patent US20260001928A1 (CORTERIA PHARMACEUTICALS, priority 2022, published 2026):
One block for each binder: values may come before it. *1 amine or outer side, *2 acyl side, *3 side chain or, on linkers, in order; H or OH if unused. Side-chain parts run from the residue outwards. [ ]: non-standard residue; d: D form. The star is where a group is joined. C16 diacid = O=C(O)CCCCCCCCCCCCCCC(=O)*; γGlu = O=C(O)[C@H](CCC(=O)[*:2])N[*:1]; Aib = CC(C)(N)C(=O)O

How the values were obtained:
CRF1R receptor = molecular target: T1, CRF1R receptor (UniProt P34998 24-415, limits assumed); test: cell-based or functional assay
T1 sequence (looked up): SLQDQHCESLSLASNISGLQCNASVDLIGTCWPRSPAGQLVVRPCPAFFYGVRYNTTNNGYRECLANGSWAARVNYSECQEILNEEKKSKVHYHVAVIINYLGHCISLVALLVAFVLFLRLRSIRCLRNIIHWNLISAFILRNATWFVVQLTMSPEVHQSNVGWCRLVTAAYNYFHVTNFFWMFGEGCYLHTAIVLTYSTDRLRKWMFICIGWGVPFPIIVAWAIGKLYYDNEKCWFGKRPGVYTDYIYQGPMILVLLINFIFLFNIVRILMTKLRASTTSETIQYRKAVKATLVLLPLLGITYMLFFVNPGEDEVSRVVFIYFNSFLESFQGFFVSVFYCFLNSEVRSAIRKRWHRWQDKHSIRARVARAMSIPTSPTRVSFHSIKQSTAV

[1] = molecular target: human corticotropin-releasing factor 2a (CRF2a receptor) (human), Q13324; test: cell-based or functional assay
Chain of human corticotropin-releasing factor 2a (CRF2a receptor) (human), Q13324 (Q13324 20-411): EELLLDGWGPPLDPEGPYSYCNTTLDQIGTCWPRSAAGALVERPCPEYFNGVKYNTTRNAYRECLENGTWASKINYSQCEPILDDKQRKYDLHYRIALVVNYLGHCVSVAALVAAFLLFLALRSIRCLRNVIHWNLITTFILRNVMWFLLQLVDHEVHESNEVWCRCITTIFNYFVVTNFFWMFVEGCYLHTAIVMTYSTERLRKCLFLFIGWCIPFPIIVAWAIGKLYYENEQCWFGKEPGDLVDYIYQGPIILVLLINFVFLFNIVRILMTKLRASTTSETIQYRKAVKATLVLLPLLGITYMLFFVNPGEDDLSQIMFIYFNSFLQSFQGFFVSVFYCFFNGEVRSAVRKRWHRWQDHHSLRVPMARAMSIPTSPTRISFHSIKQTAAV

Emax (% I) (CRF1R receptor): 5%
EC50 [nM] (cAMP) [1]: 0.34 nM
B1: SEQ ID NO 21 (peptide)
peptide: Ac-IVLSLD[dV]PIKLK([γGlu-C16 diacid])KILLKQERQKKQREQAEKN[Aib]QILEQV-NH2
SMILES: CC[C@H](C)[C@H](NC(C)=O)C(=O)N[C@H](C(=O)N[C@@H](CC(C)C)C(=O)N[C@@H](CO)C(=O)N[C@@H](CC(C)C)C(=O)N[C@@H](CC(=O)O)C(=O)N[C@@H](C(=O)N1CCC[C@H]1C(=O)N[C@H](C(=O)N[C@@H](CCCCN)C(=O)N[C@@H](CC(C)C)C(=O)N[C@@H](CCCCNC(=O)CC[C@H](NC(=O)CCCCCCCCCCCCCCC(=O)O)C(=O)O)C(=O)N[C@@H](CCCCN)C(=O)N[C@H](C(=O)N[C@@H](CC(C)C)C(=O)N[C@@H](CC(C)C)C(=O)N[C@@H](CCCCN)C(=O)N[C@@H](CCC(N)=O)C(=O)N[C@@H](CCC(=O)O)C(=O)N[C@@H](CCCNC(=N)N)C(=O)N[C@@H](CCC(N)=O)C(=O)N[C@@H](CCCCN)C(=O)N[C@@H](CCCCN)C(=O)N[C@@H](CCC(N)=O)C(=O)N[C@@H](CCCNC(=N)N)C(=O)N[C@@H](CCC(=O)O)C(=O)N[C@@H](CCC(N)=O)C(=O)N[C@@H](C)C(=O)N[C@@H](CCC(=O)O)C(=O)N[C@@H](CCCCN)C(=O)N[C@@H](CC(N)=O)C(=O)NC(C)(C)C(=O)N[C@@H](CCC(N)=O)C(=O)N[C@H](C(=O)N[C@@H](CC(C)C)C(=O)N[C@@H](CCC(=O)O)C(=O)N[C@@H](CCC(N)=O)C(=O)N[C@H](C(N)=O)C(C)C)[C@@H](C)CC)[C@@H](C)CC)[C@@H](C)CC)C(C)C)C(C)C

Emax (% I) (CRF1R receptor): 3%
EC50 [nM] (cAMP) [1]: 0.3 nM
B2: SEQ ID NO 56 (peptide)
peptide: Ac-IVLSLD[dV]PIKLK([γGlu-C16 diacid])KILLEQEKQKKQREQAETNEQILAQV-NH2
SMILES: CC[C@H](C)[C@H](NC(C)=O)C(=O)N[C@H](C(=O)N[C@@H](CC(C)C)C(=O)N[C@@H](CO)C(=O)N[C@@H](CC(C)C)C(=O)N[C@@H](CC(=O)O)C(=O)N[C@@H](C(=O)N1CCC[C@H]1C(=O)N[C@H](C(=O)N[C@@H](CCCCN)C(=O)N[C@@H](CC(C)C)C(=O)N[C@@H](CCCCNC(=O)CC[C@H](NC(=O)CCCCCCCCCCCCCCC(=O)O)C(=O)O)C(=O)N[C@@H](CCCCN)C(=O)N[C@H](C(=O)N[C@@H](CC(C)C)C(=O)N[C@@H](CC(C)C)C(=O)N[C@@H](CCC(=O)O)C(=O)N[C@@H](CCC(N)=O)C(=O)N[C@@H](CCC(=O)O)C(=O)N[C@@H](CCCCN)C(=O)N[C@@H](CCC(N)=O)C(=O)N[C@@H](CCCCN)C(=O)N[C@@H](CCCCN)C(=O)N[C@@H](CCC(N)=O)C(=O)N[C@@H](CCCNC(=N)N)C(=O)N[C@@H](CCC(=O)O)C(=O)N[C@@H](CCC(N)=O)C(=O)N[C@@H](C)C(=O)N[C@@H](CCC(=O)O)C(=O)N[C@H](C(=O)N[C@@H](CC(N)=O)C(=O)N[C@@H](CCC(=O)O)C(=O)N[C@@H](CCC(N)=O)C(=O)N[C@H](C(=O)N[C@@H](CC(C)C)C(=O)N[C@@H](C)C(=O)N[C@@H](CCC(N)=O)C(=O)N[C@H](C(N)=O)C(C)C)[C@@H](C)CC)[C@@H](C)O)[C@@H](C)CC)[C@@H](C)CC)C(C)C)C(C)C
